From paper PMC12349009 (2025)

What was measured:
[1] = target: T1, soluble recombinant NKp65 ectodomain with threonine at position 131 (NKp65-Thr131) (human, UniProt D3W0D1 63-207, substitution of proline by threonine at amino acid position 131, biotin on the N-terminal BirA tag (enzymatic, BirA ligase)); experiment: SPR; KD1 of bivalent fit, multi-cycle kinetics
T1 sequence: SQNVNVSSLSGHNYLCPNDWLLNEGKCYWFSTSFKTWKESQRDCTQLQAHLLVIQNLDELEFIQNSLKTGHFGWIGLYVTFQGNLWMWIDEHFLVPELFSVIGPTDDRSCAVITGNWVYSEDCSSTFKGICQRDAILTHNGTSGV

[2] = target: T2, soluble recombinant NKp65 ectodomain with proline at position 131 (NKp65-Pro131) (human, UniProt D3W0D1 63-207, biotin on the N-terminal BirA tag (enzymatic, BirA ligase)); experiment: SPR; KD1 of bivalent fit, multi-cycle kinetics
T2 chain: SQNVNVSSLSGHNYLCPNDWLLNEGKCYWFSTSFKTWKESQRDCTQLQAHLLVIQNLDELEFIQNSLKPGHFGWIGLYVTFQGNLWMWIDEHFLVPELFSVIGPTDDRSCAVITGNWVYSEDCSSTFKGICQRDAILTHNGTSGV

[3] = target: soluble recombinant NKp65 ectodomain with proline at position 131 (NKp65-Pro131) (human) (UniProt D3W0D1); experiment: SPR; mean of KD1 (bivalent model) from at least three measurements, protein produced independently twice, 2 different chip lots; biotinylated NKp65 immobilised on a streptavidin chip, sKACL as analyte; which runs were pooled is not told
[4] = target: soluble recombinant NKp65 ectodomain with threonine at position 131 (NKp65-Thr131) (human) (UniProt D3W0D1); experiment: as above
[5] = target: soluble recombinant NKp65 ectodomain with proline at position 131 (NKp65-Pro131) (human) (UniProt D3W0D1); experiment: SPR; single-cycle kinetics, Biacore X100; 73.4 ± 12.4 RU biotinylated NKp65 immobilised on a streptavidin chip (Sensor Chip SA), pulsed 120 s with sKACL 0.247-20 nM, flow 30 µl/min, final dissociation 600 s; bivalent binding model
[6] = target: soluble recombinant NKp65 ectodomain with threonine at position 131 (NKp65-Thr131) (human) (UniProt D3W0D1); experiment: as above

Kd [1]: 57.1 nM
Kd [2]: 13.6 nM
KD1 (bivalent fit) [3]: 8.2 nM
KD1 (bivalent fit) [4]: 35 nM
Kd [5]: 2.6 nM
Kd [6]: 20.3 nM
B1: recombinant KACL ectodomain (sKACL) (ligand)
chain: WSKHAKPVACSGDWLGVRDKCFYFSDDTRNWTASKIFCSLQKAELAQIDTQEDMEFLKRYAGTDMHWIGLSRKQGDSWKWTNGTTFNGWFEIIGNGSFAFLSADGVHSSRGFIDIKWICSKPKYFL
